{
  "source": "paper PMC10514558",
  "about": "“Suramin inhibits SARS-CoV-2 nucleocapsid phosphoprotein genome packaging function”",
  "key": {"SARS-CoV-2 N NTD": {"molecular_target": "SARS-CoV-2 N NTD (SARS-CoV-2, UniProt P0DTC9 44-180)", "assay": "MST; 20 nM RNA; no suramin; apparent Kd", "conditions": "protein: recombinant; tags: 6xHis; label: 5'-Cy5"}, "SARS-CoV-2 N CTD": {"molecular_target": "SARS-CoV-2 N CTD (SARS-CoV-2, UniProt P0DTC9 247-364)", "assay": "MST", "conditions": "protein: recombinant; tags: 6xHis; chain copies: 2; label: 5'-Cy5"}},
  "data": [
    {"binder": "AUUAAAG (ssRNA)", "note": "[Cy5-ssRNA 7-mer]", "values": [
      {"measurement": "Kd", "setting": "SARS-CoV-2 N NTD", "result": "30.6 ± 4.9", "unit": "µM"},
      {"measurement": "Kd", "setting": "SARS-CoV-2 N CTD", "result": "5.3 ± 0.2", "unit": "µM"}
    ]}
  ]
}
